Assay results taken from paper PMC12089766.

How the values were obtained:
[1] = target: Arabidopsis cytosolic glyceraldehyde-3-phosphate dehydrogenase (GAPC1), recombinant, His-tagged (Arabidopsis thaliana) (UniProt P25858)
[2] = target: human glyceraldehyde-3-phosphate dehydrogenase (GAPDH), recombinant, His-tagged (human) (UniProt P04406)
[3] = target: Arabidopsis cytosolic glyceraldehyde-3-phosphate dehydrogenase (GAPC1), recombinant, His-tagged (Arabidopsis thaliana) (UniProt P25858); assay: MST; GAPC1 labelled on its His tag (RED-tris-NTA 2nd Generation), 50 nM; cyclo(His-Pro) titrated; 50 mM Tris-HCl pH 8.0 with 1.6 mM NAD+; premium capillaries, Monolith X; binding from the spectral shift A670/A650
[4] = target: Arabidopsis cytosolic glyceraldehyde-3-phosphate dehydrogenase (GAPC1), recombinant, His-tagged (Arabidopsis thaliana) (UniProt P25858); assay: nano-differential scanning fluorimetry (nanoDSF); about 0.8 ug protein per capillary in 50 mM Tris-HCl pH 8.0; ligands at 100 uM (cyclo(Tyr-Asp) also at 500 uM and 1 mM); ramp 2 °C/min, 20 to 90 °C; shift of the melting temperature against mock

Sequence of UniProt P25858 (P25858 whole entry): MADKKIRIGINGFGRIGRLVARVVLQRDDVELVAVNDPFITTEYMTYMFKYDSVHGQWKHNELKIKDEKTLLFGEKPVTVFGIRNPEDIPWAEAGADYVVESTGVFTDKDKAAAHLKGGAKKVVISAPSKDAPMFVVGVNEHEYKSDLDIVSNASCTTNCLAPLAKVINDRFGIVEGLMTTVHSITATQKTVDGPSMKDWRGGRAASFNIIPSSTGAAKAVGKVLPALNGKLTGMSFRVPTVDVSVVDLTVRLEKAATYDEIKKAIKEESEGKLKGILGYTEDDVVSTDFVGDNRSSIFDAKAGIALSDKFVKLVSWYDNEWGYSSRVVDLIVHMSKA
Sequence of UniProt P04406 (P04406 whole entry): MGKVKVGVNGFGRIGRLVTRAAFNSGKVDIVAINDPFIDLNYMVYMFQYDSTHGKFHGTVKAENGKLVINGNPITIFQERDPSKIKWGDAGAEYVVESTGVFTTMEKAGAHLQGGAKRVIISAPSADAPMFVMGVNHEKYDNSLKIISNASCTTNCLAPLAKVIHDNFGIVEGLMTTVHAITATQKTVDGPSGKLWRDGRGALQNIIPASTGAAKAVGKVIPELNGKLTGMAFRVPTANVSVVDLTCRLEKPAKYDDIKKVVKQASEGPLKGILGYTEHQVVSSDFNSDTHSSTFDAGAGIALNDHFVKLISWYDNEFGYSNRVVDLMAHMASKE

IC50 of inhibition of GAPC1 enzymatic activity (oxidation of glyceraldehyde-3-phosphate, reduction of NAD+ to NADH) [1] [µM]	IC50 of inhibition of GAPDH enzymatic activity [2] [µM]	Kd [3] [µM]	shift of the melting temperature at 100 μM ligand [4] [°C]	IC50 of inhibition of enzymatic activity [1] [mM]	Substance
200	70	40	> 4		cyclo(His-Pro), cyclo(L-histidyl-L-proline) (peptide)
				1.5	cyclo(Tyr-Asp), cyclo(L-tyrosyl-L-aspartic acid) (peptide)
